Source: the supplement of paper PMC10126150
± gives the standard deviation of the averaged measurements.

Test system: ATP
Assay: switch fluorescence ratio, 500 uM ATP over buffer (Cy3 cluster intensity, sum of 5 cycles each) (fold (ratio)); higher = stronger signal-on switching upon ATP binding; sequences stand for … in TCGTCGGCAGCGTCAGATGTGTATAAGAGACAGTTTTTTTTTTTTTTTTTTTTTTTTT…TC
Conditions: aptamer strand: ATP DNA aptamer (quencher-CACCTGGGGGAGTATTGCGGAGGAAGG + anchor), 100 nM annealed; ATP concentration: 500 uM
In short: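 For every switch-domain sequence, the fluorescence ratio is the mean of per-cluster values, each being summed target-cycle Cy3 intensity over summed buffer-cycle Cy3 intensity. Clusters outside 100-1000 RFU were excluded. On a modified Illumina MiSeq flow-cell, the Cy3-labelled switching-strand clusters were annealed to 100 nM quencher-labelled ATP aptamer, imaged in selection buffer and then after 15 min with 500 uM ATP at 22 °C. Five such cycles were run, with NaOH stripping and re-annealing between them.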
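Note: ATP exposure 15 min at 22 °C before imaging.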

TGCTTTAGGG
switch fluorescence ratio: 0.965 ± 0.029

TGGAAAAGGG
switch fluorescence ratio: 1.032 ± 0.0082

TGGAACCGGA
switch fluorescence ratio: 1.02 ± 0.011

TGGAACTTAT
switch fluorescence ratio: 0.997 ± 0.056

TGGAAGAAAT
switch fluorescence ratio: 1.02 ± 0.011

TGGAAGAGGG
switch fluorescence ratio: 1 ± 0.018

TGGAAGGGG
switch fluorescence ratio: 1.02 ± 0.015

TGGAAGGTT
switch fluorescence ratio: 0.987 ± 0.019

TGGAATTAAC
switch fluorescence ratio: 1.02 ± 0.042

TGGAATTACT
switch fluorescence ratio: 1.26 ± 0.36

TGGAATTTGG
switch fluorescence ratio: 1 ± 0.038

TGGACAAATT
switch fluorescence ratio: 1.02 ± 0.022

TGGACATGTG
switch fluorescence ratio: 1.05 ± 0.1

TGGACCGGTC
switch fluorescence ratio: 0.996 ± 0.01

TGGACGGGGC
switch fluorescence ratio: 1.034 ± 0.0099

TGGAGAAAGT
switch fluorescence ratio: 1.03 ± 0.067

TGGAGAGGGG
switch fluorescence ratio: 0.996 ± 0.05

TGGAGAGTGT
switch fluorescence ratio: 0.963 ± 0.036

TGGAGGGGCT
switch fluorescence ratio: 0.987 ± 0.046

TGGAGGTCCG
switch fluorescence ratio: 1.06 ± 0.023

TGGAGTAACT
switch fluorescence ratio: 1.0876 ± 0.00087

TGGAGTCCGG
switch fluorescence ratio: 0.987 ± 0.036

TGGAGTTTAA
switch fluorescence ratio: 1 ± 0.026

TGGATAGAGT
switch fluorescence ratio: 0.985 ± 0.02

TGGATAGGCA
switch fluorescence ratio: 0.986 ± 0.012

TGGATAGGTA
switch fluorescence ratio: 0.995 ± 0.023

TGGATATGAC
switch fluorescence ratio: 1 ± 0.015

TGGATCAAGT
switch fluorescence ratio: 1.01 ± 0.06

TGGATGATAT
switch fluorescence ratio: 0.9913 ± 0.008

TGGATGTCTG
switch fluorescence ratio: 0.978 ± 0.044

TGGATTAAGT
switch fluorescence ratio: 1.02 ± 0.042

TGGATTATGT
switch fluorescence ratio: 1.005 ± 0.0045

TGGATTGGGT
switch fluorescence ratio: 1 ± 0.046

TGGCACAGTG
switch fluorescence ratio: 0.996 ± 0.019

TGGCACGCGG
switch fluorescence ratio: 0.986 ± 0.019

TGGCACGTAT
switch fluorescence ratio: 1.09 ± 0.03

TGGCAGAAGG
switch fluorescence ratio: 1.06 ± 0.076

TGGCAGTAAA
switch fluorescence ratio: 1.02 ± 0.039

TGGCATATTT
switch fluorescence ratio: 1.05 ± 0.051

TGGCATTGGT
switch fluorescence ratio: 0.983 ± 0.014

TGGCCGACTT
switch fluorescence ratio: 1.02 ± 0.02

TGGCCGCTTT
switch fluorescence ratio: 1.03 ± 0.03

TGGCCGGAAT
switch fluorescence ratio: 1.04 ± 0.03

TGGCCTAACT
switch fluorescence ratio: 1.02 ± 0.042

TGGCCTTCGT
switch fluorescence ratio: 1.13 ± 0.049

TGGCGAGAGG
switch fluorescence ratio: 1 ± 0.022

TGGCGATTGG
switch fluorescence ratio: 0.985 ± 0.023

TGGCGGATTT
switch fluorescence ratio: 0.998 ± 0.031

TGGCGGGGAC
switch fluorescence ratio: 1.1 ± 0.17

TGGCGGGGGC
switch fluorescence ratio: 1.02 ± 0.011

TGGCGGTAGT
switch fluorescence ratio: 1.06 ± 0.056

TGGCGTTGGG
switch fluorescence ratio: 1.02 ± 0.046

TGGCTCCCGC
switch fluorescence ratio: 1.089 ± 0.0041

TGGCTCGAGC
switch fluorescence ratio: 1.01 ± 0.017

TGGCTCGGCT
switch fluorescence ratio: 1.03 ± 0.051

TGGCTGAGAA
switch fluorescence ratio: 0.9723 ± 0.0028

TGGCTGATTT
switch fluorescence ratio: 1.003 ± 0.0053

TGGCTGCTGG
switch fluorescence ratio: 0.949 ± 0.013

TGGCTGGAAC
switch fluorescence ratio: 0.981 ± 0.021

TGGCTGGGCT
switch fluorescence ratio: 1.03 ± 0.05

TGGCTTGGGG
switch fluorescence ratio: 1.03 ± 0.051

TGGGAAAGCC
switch fluorescence ratio: 0.981 ± 0.012

TGGGAAAGCG
switch fluorescence ratio: 1 ± 0.024

TGGGAACCAA
switch fluorescence ratio: 1.02 ± 0.022

TGGGAAGGTT
switch fluorescence ratio: 1.02 ± 0.041

TGGGAATACG
switch fluorescence ratio: 1.11 ± 0.048

TGGGAATGCC
switch fluorescence ratio: 0.994 ± 0.025

TGGGAATGGT
switch fluorescence ratio: 1.01 ± 0.048

TGGGACGCCT
switch fluorescence ratio: 1.06 ± 0.14

TGGGACGGGT
switch fluorescence ratio: 0.968 ± 0.052

TGGGACGGTC
switch fluorescence ratio: 1.1 ± 0.051

TGGGACTGGG
switch fluorescence ratio: 1.01 ± 0.06

TGGGAGAAGT
switch fluorescence ratio: 0.983 ± 0.011

TGGGAGCAGG
switch fluorescence ratio: 1.05 ± 0.079

TGGGAGGG
switch fluorescence ratio: 1.04 ± 0.013

TGGGAGGGGG
switch fluorescence ratio: 0.991 ± 0.036

TGGGAGTTCA
switch fluorescence ratio: 0.971 ± 0.01

TGGGATCCGC
switch fluorescence ratio: 1.03 ± 0.056

TGGGATGGAA
switch fluorescence ratio: 1.004 ± 0.0031

TGGGATGGAG
switch fluorescence ratio: 0.976 ± 0.037

TGGGATGTTG
switch fluorescence ratio: 1 ± 0.052

TGGGATTAAG
switch fluorescence ratio: 0.987 ± 0.034

TGGGCAAAAA
switch fluorescence ratio: 1.01 ± 0.011

TGGGCAAAGT
switch fluorescence ratio: 0.9863 ± 0.0074

TGGGCAAGGA
switch fluorescence ratio: 1.02 ± 0.028

TGGGCACGGT
switch fluorescence ratio: 0.969 ± 0.049

TGGGCAGATG
switch fluorescence ratio: 0.989 ± 0.016

TGGGCCGAGG
switch fluorescence ratio: 1.12 ± 0.063

TGGGCGAACG
switch fluorescence ratio: 0.9626 ± 0.0022

TGGGCGAGAA
switch fluorescence ratio: 0.9685 ± 0.0052

TGGGCGGTGC
switch fluorescence ratio: 1.93 ± 1.2

TGGGCTAAAT
switch fluorescence ratio: 0.987 ± 0.027

TGGGGAAAAG
switch fluorescence ratio: 1.09 ± 0.31

TGGGGAAAGA
switch fluorescence ratio: 1.01 ± 0.034

TGGGGAAATG
switch fluorescence ratio: 0.997 ± 0.029

TGGGGAAATT
switch fluorescence ratio: 1.01 ± 0.022

TGGGGAAGGG
switch fluorescence ratio: 0.989 ± 0.039

TGGGGAAGTT
switch fluorescence ratio: 1 ± 0.034

TGGGGAATTC
switch fluorescence ratio: 1.53 ± 0.86

TGGGGACCCT
switch fluorescence ratio: 0.991 ± 0.014

TGGGGACCGG
switch fluorescence ratio: 1.01 ± 0.027

TGGGGACCTT
switch fluorescence ratio: 1 ± 0.0032

TGGGGACGGT
switch fluorescence ratio: 1.01 ± 0.012

TGGGGAGATA
switch fluorescence ratio: 1.01 ± 0.018

TGGGGAGGGT
switch fluorescence ratio: 1.01 ± 0.035

TGGGGATAAC
switch fluorescence ratio: 0.969 ± 0.034

TGGGGCAAAC
switch fluorescence ratio: 1.87 ± 0.81

TGGGGCAGGT
switch fluorescence ratio: 0.997 ± 0.051

TGGGGCATTT
switch fluorescence ratio: 1 ± 0.036

TGGGGCCCCA
switch fluorescence ratio: 1.01 ± 0.046

TGGGGCCCGA
switch fluorescence ratio: 1.02 ± 0.037

TGGGGCCTAA
switch fluorescence ratio: 1.02 ± 0.013

TGGGGCCTTA
switch fluorescence ratio: 0.952 ± 0.018

TGGGGCGACT
switch fluorescence ratio: 0.991 ± 0.021

TGGGGCGGAG
switch fluorescence ratio: 0.979 ± 0.031

TGGGGCGGCG
switch fluorescence ratio: 0.976 ± 0.03

TGGGGCGTGC
switch fluorescence ratio: 1.06 ± 0.065

TGGGGCGTTG
switch fluorescence ratio: 1.01 ± 0.019

TGGGGGAACT
switch fluorescence ratio: 0.996 ± 0.019

TGGGGGAAGA
switch fluorescence ratio: 1.03 ± 0.069

TGGGGGAAGT
switch fluorescence ratio: 1.01 ± 0.029

TGGGGGAATA
switch fluorescence ratio: 0.999 ± 0.03

TGGGGGACAG
switch fluorescence ratio: 1 ± 0.029

TGGGGGACGG
switch fluorescence ratio: 1 ± 0.035

TGGGGGAGA
switch fluorescence ratio: 1.04 ± 0.017

TGGGGGAGTT
switch fluorescence ratio: 0.994 ± 0.026

TGGGGGATTA
switch fluorescence ratio: 0.999 ± 0.021

TGGGGGCAAA
switch fluorescence ratio: 0.987 ± 0.03

TGGGGGCAAG
switch fluorescence ratio: 0.987 ± 0.018

TGGGGGCCGG
switch fluorescence ratio: 1.02 ± 0.039

TGGGGGCGAC
switch fluorescence ratio: 1 ± 0.057

TGGGGGCGTG
switch fluorescence ratio: 0.9502 ± 0.00056

TGGGGGGAC
switch fluorescence ratio: 1.01 ± 0.061

TGGGGGGACC
switch fluorescence ratio: 1.03 ± 0.05

TGGGGGGCAA
switch fluorescence ratio: 1.56 ± 1.1

TGGGGGGTCT
switch fluorescence ratio: 1.02 ± 0.057

TGGGGGGTTG
switch fluorescence ratio: 1.02 ± 0.049

TGGGGGTCGA
switch fluorescence ratio: 1.01 ± 0.053

TGGGGGTTAA
switch fluorescence ratio: 0.981 ± 0.025

TGGGGGTTCC
switch fluorescence ratio: 1.01 ± 0.025

TGGGGGTTGG
switch fluorescence ratio: 1 ± 0.024

TGGGGGTTTT
switch fluorescence ratio: 1 ± 0.032

TGGGGTAAAC
switch fluorescence ratio: 0.997 ± 0.024

TGGGGTAAGA
switch fluorescence ratio: 1.02 ± 0.015

TGGGGTAAGT
switch fluorescence ratio: 0.993 ± 0.032

TGGGGTATGG
switch fluorescence ratio: 0.978 ± 0.033

TGGGGTATTG
switch fluorescence ratio: 0.974 ± 0.012

TGGGGTCGGC
switch fluorescence ratio: 0.987 ± 0.021

TGGGGTCTGA
switch fluorescence ratio: 0.974 ± 0.017

TGGGGTGAAC
switch fluorescence ratio: 1 ± 0.025

TGGGGTGCCA
switch fluorescence ratio: 0.9795 ± 0.0071

TGGGGTGCTC
switch fluorescence ratio: 0.998 ± 0.056

TGGGGTGGGT
switch fluorescence ratio: 1 ± 0.039

TGGGGTTA
switch fluorescence ratio: 0.98448 ± 0.00037

TGGGGTTGAC
switch fluorescence ratio: 0.9697 ± 0.0034

TGGGGTTGGG
switch fluorescence ratio: 1 ± 0.044

TGGGGTTGTG
switch fluorescence ratio: 0.987 ± 0.031

TGGGGTTTTT
switch fluorescence ratio: 0.984 ± 0.026

TGGGTAAAGC
switch fluorescence ratio: 1.03 ± 0.017

TGGGTAACGG
switch fluorescence ratio: 0.999 ± 0.0039

TGGGTAATAT
switch fluorescence ratio: 1.032 ± 0.0077

TGGGTACACG
switch fluorescence ratio: 1 ± 0.0019

TGGGTAGGCT
switch fluorescence ratio: 0.996 ± 0.035

TGGGTATAAT
switch fluorescence ratio: 1.014 ± 0.0096

TGGGTATAT
switch fluorescence ratio: 1.01 ± 0.011

TGGGTATGTG
switch fluorescence ratio: 0.972 ± 0.038

TGGGTATTAG
switch fluorescence ratio: 0.992 ± 0.054

TGGGTATTGT
switch fluorescence ratio: 1.02 ± 0.047

TGGGTCAAAG
switch fluorescence ratio: 0.9881 ± 0.0088

TGGGTCCATA
switch fluorescence ratio: 0.95611 ± 0.00081

TGGGTCGGCT
switch fluorescence ratio: 1.06 ± 0.1

TGGGTCGGGA
switch fluorescence ratio: 0.982 ± 0.031

TGGGTCTGAT
switch fluorescence ratio: 0.9865 ± 0.0031

TGGGTGAATT
switch fluorescence ratio: 0.98 ± 0.017

TGGGTGCTGA
switch fluorescence ratio: 0.954 ± 0.052

TGGGTGGACA
switch fluorescence ratio: 1.02 ± 0.08

TGGGTGGGAC
switch fluorescence ratio: 1.04 ± 0.036

TGGGTGGGCT
switch fluorescence ratio: 0.975 ± 0.011

TGGGTGGGGA
switch fluorescence ratio: 1 ± 0.036

TGGGTGGTGC
switch fluorescence ratio: 0.965 ± 0.011

TGGGTGGTTG
switch fluorescence ratio: 1.02 ± 0.035

TGGGTGTAGG
switch fluorescence ratio: 1.007 ± 0.004

TGGGTTAATT
switch fluorescence ratio: 0.989 ± 0.026

TGGGTTACGG
switch fluorescence ratio: 0.983 ± 0.036

TGGGTTAGCC
switch fluorescence ratio: 1.01 ± 0.038

TGGGTTCACT
switch fluorescence ratio: 1.02 ± 0.017

TGGGTTCGGA
switch fluorescence ratio: 0.985 ± 0.023

TGGGTTGACG
switch fluorescence ratio: 0.998 ± 0.037

TGGGTTGAGG
switch fluorescence ratio: 0.997 ± 0.016

TGGGTTGCTG
switch fluorescence ratio: 1.05 ± 0.066

TGGGTTTGTC
switch fluorescence ratio: 0.96 ± 0.049

TGGGTTTTAT
switch fluorescence ratio: 0.9954 ± 0.0094

TGGGTTTTGA
switch fluorescence ratio: 1.01 ± 0.033

TGGGTTTTGG
switch fluorescence ratio: 0.997 ± 0.052

TGGGTTTTTT
switch fluorescence ratio: 1.01 ± 0.048

TGGTAAAACT
switch fluorescence ratio: 1.06 ± 0.034

TGGTAAATCG
switch fluorescence ratio: 1.03 ± 0.038

TGGTAAATGT
switch fluorescence ratio: 0.97 ± 0.013

TGGTAACGCG
switch fluorescence ratio: 1 ± 0.014

TGGTAAGGGG
switch fluorescence ratio: 1.12 ± 0.25
